Test results from the supplement of paper PMC10724198.
± gives the standard deviation of the averaged measurements.

Columns and labels:
Saccharomyces cerevisiae [1] = experiment: protein stability index of tFT-peptide fusion (C-terminal peptide) (PSI (0-1 scale)); higher = more stable (slower turnover); conditions: genetic background: wild type; temperature: 30 C
Saccharomyces cerevisiae [2] = experiment: as above
Description: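 MPS profiling in S. cerevisiae of the tFT-X12 degron library: putative degron peptides plus stable controls, 12 aa, fused to the C-terminus of a sfGFP-mCherry timer. Cells are FACS-sorted into 8 mCherry/sfGFP bins and deep-sequenced. PSI runs from 0 (unstable) to 1 (stable). Backgrounds are wild type, das1Δ and doa10Δ at 30 °C, and wild type, das1Δ, cdc34-1 and cdc53-1 at 37 °C; 2-3 technical replicates each.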

[3] = genetic background: cdc34-1, temperature: 37 C
[4] = genetic background: cdc53-1, temperature: 37 C
[5] = genetic background: das1 deletion, temperature: 30 C
[6] = genetic background: das1 deletion, temperature: 37 C
[7] = genetic background: doa10 deletion, temperature: 30 C
[8] = genetic background: wild type, temperature: 30 C
[9] = genetic background: wild type, temperature: 37 C
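Also: PSI is a weighted mean of sequencing reads over stability bins, variants kept only with over 10 reads, mCherry proximal and sfGFP distal, peptide attached via GGGS linker.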

| Sequence | protein stability index (Saccharomyces cerevisiae [1]) | protein stability index (Saccharomyces cerevisiae [2]; [3]) | protein stability index (Saccharomyces cerevisiae [2]; [4]) | protein stability index (Saccharomyces cerevisiae [2]; [5]) | protein stability index (Saccharomyces cerevisiae [2]; [6]) | protein stability index (Saccharomyces cerevisiae [2]; [7]) | protein stability index (Saccharomyces cerevisiae [2]; [8]) | protein stability index (Saccharomyces cerevisiae [2]; [9]) |
| --- | --- | --- | --- | --- | --- | --- | --- | --- |
| RFKEKVSIIHKQ | 0.207 ± 0.054 | 0.6446 ± 0.0022 | 0.665 ± 0.061 | 0.693 ± 0.04 | 0.74 ± 0.017 | 0.11 ± 0.0081 | 0.106 ± 0.046 | 0.12487 ± 0.0001 |
| VNILFCLFFLLV | 0.412 ± 0.013 | 0.449 ± 0.02 | 0.554 ± 0.027 | 0.419 ± 0.021 | 0.564 ± 0.023 | 0.392 ± 0.025 | 0.36 ± 0.0062 | 0.4772 ± 0.0041 |
| PALPTPPVSPSP | 0.333 ± 0.013 | 0.613 ± 0.092 | 0.667 ± 0.11 | 0.256 ± 0.025 | 0.465 ± 0.0057 | 0.243 ± 0.014 | 0.265 ± 0.022 | 0.43648 ± 0.00011 |
| PWFSWLLYSFLF | 0.501 ± 0.0028 | 0.546 ± 0.024 | 0.529 ± 0.031 | 0.526 ± 0.013 | 0.651 ± 0.029 | 0.535 ± 0.016 | 0.458 ± 0.026 | 0.551 ± 0.011 |
| LRVAWVCISIVA | 0.117 ± 0.027 | 0.0375 ± 0.005 | 0.0899 ± 0.006 | 0.0876 ± 0.023 | 0.164 ± 0.0029 | 0.0363 ± 0.011 | 0.0495 ± 0.015 | 0.0664 ± 0.0091 |
| CLQYRACLILLT | 0.425 ± 0.0091 | 0.406 ± 0.014 | 0.3653 ± 0.0014 | 0.365 ± 0.015 | 0.494 ± 0.0041 | 0.456 ± 0.0093 | 0.343 ± 0.015 | 0.425 ± 0.0086 |
| SRRCGLFVFILF | 0.392 ± 0.03 | 0.387 ± 0.042 | 0.378 ± 0.028 | 0.324 ± 0.041 | 0.49 ± 0.021 | 0.365 ± 0.008 | 0.277 ± 0.03 | 0.471 ± 0.006 |
| EGVVLLVDCVAT | 0.41 ± 0.025 | 0.4623 ± 0.0015 | 0.465 ± 0.02 | 0.301 ± 0.031 | 0.514 ± 0.0093 | 0.26 ± 0.0074 | 0.308 ± 0.02 | 0.492 ± 0.02 |
| IYFFVLRLRLCG | 0.233 ± 0.1 | 0.278 ± 0.004 | 0.291 ± 0.021 | 0.235 ± 0.029 | 0.428 ± 0.0065 | 0.16 ± 0.0036 | 0.162 ± 0.015 | 0.253 ± 0.0032 |
| VCNYRKLIWKHH | 0.181 ± 0.023 | 0.52 ± 0.024 | 0.661 ± 0.047 | 0.653 ± 0.015 | 0.746 ± 0.029 | 0.0622 ± 0.031 | 0.0668 ± 0.033 | 0.13 ± 0.012 |
| FVCLCGFLQVLS | 0.489 ± 0.0078 | 0.517 ± 0.018 | 0.564 ± 0.038 | 0.395 ± 0.036 | 0.632 ± 0.04 | 0.3687 ± 0.0013 | 0.411 ± 0.028 | 0.526 ± 0.028 |
| NDVGGYFYVCSE | 0.578 ± 0.12 | 0.682 ± 0.013 | 0.749 ± 0.013 | 0.641 ± 0.012 | 0.7142 ± 0.0056 | 0.63 ± 0.011 | 0.648 ± 0.024 | 0.735 ± 0.023 |
| KKNITRLKNKMT | 0.416 ± 0.14 | 0.535 ± 0.032 | 0.676 ± 0.033 | 0.678 ± 0.031 | 0.691 ± 0.059 | 0.212 ± 0.045 | 0.199 ± 0.093 | 0.392 ± 0.086 |
| WGGIASLVASAA | 0.364 ± 0.0089 | 0.36 ± 0.049 | 0.437 ± 0.1 | 0.236 ± 0.033 | 0.411 ± 0.0061 | 0.214 ± 0.006 | 0.259 ± 0.019 | 0.378 ± 0.023 |
| LRVPCPPCCVFV | 0.398 ± 0.027 | 0.568 ± 0.049 | 0.69936 ± 0.0003 | 0.616 ± 0.016 | 0.727 ± 0.0099 | 0.33 ± 0.015 | 0.334 ± 0.009 | 0.4302 ± 0.0026 |
| RLPYSLTFFLLC | 0.134 ± 0.009 | 0.414 ± 0.0067 | 0.5789 ± 0.0027 | 0.484 ± 0.038 | 0.576 ± 0.0034 | 0.07289 ± 0.00032 | 0.0628 ± 0.018 | 0.0714 ± 0.0077 |
| IWVWMLSVWLGG | 0.349 ± 0.013 | 0.303 ± 0.016 | 0.3731 ± 0.002 | 0.291 ± 0.021 | 0.409 ± 0.022 | 0.273 ± 0.021 | 0.288 ± 0.017 | 0.407 ± 0.018 |
| LWLVSLLVLWLT | 0.316 ± 0.018 | 0.332 ± 0.035 | 0.375 ± 0.033 | 0.291 ± 0.033 | 0.439 ± 0.011 | 0.239 ± 0.0059 | 0.256 ± 0.02 | 0.383 ± 0.013 |
| FLLGWFLFFVCS | 0.406 ± 0.043 | 0.401 ± 0.015 | 0.422 ± 0.019 | 0.32 ± 0.027 | 0.4361 ± 0.0024 | 0.289 ± 0.012 | 0.283 ± 0.027 | 0.393 ± 0.013 |
| GNSAGSVGGGRF | 0.705 ± 0.038 | 0.695 ± 0.022 | 0.738 ± 0.02 | 0.627 ± 0.012 | 0.7387 ± 0.0012 | 0.638 ± 0.024 | 0.652 ± 0.014 | 0.7254 ± 0.0028 |

| Sequence | protein stability index (Saccharomyces cerevisiae [1]) | protein stability index (Saccharomyces cerevisiae [2]; [3]) | protein stability index (Saccharomyces cerevisiae [2]; [4]) | protein stability index (Saccharomyces cerevisiae [2]; [5]) | protein stability index (Saccharomyces cerevisiae [2]; [6]) | protein stability index (Saccharomyces cerevisiae [2]; [7]) | protein stability index (Saccharomyces cerevisiae [2]; [8]) | protein stability index (Saccharomyces cerevisiae [2]; [9]) |
| --- | --- | --- | --- | --- | --- | --- | --- | --- |
| YSGRYRTLVRCW | 0.33 ± 0.015 | 0.291 ± 0.011 | 0.366 ± 0.039 | 0.265 ± 0.037 | 0.4426 ± 0.0032 | 0.199 ± 0.0059 | 0.236 ± 0.033 | 0.384 ± 0.02 |
| VWRLCFPFALVR | 0.194 ± 0.02 | 0.0577 ± 0.022 | 0.0537 ± 0.012 | 0.155 ± 0.025 | 0.18 ± 0.023 | 0.225 ± 0.0026 | 0.132 ± 0.025 | 0.1406 ± 0.00093 |
| CTAWWVKGVAVK | 0.525 ± 0.049 | 0.622 ± 0.033 | 0.6395 ± 0.0018 | 0.443 ± 0.031 | 0.643 ± 0.023 | 0.424 ± 0.028 | 0.435 ± 0.018 | 0.624 ± 0.029 |
| HRDVISVVRNMS | 0.43 ± 0.027 | 0.625 ± 0.016 | 0.70886 ± 0.00045 | 0.659 ± 0.058 | 0.715 ± 0.019 | 0.246 ± 0.022 | 0.333 ± 0.022 | 0.576 ± 0.012 |
| LFSPLKGILSVM | 0.448 ± 0.018 | 0.589 ± 0.0073 | 0.664 ± 0.011 | 0.51 ± 0.032 | 0.691 ± 0.0074 | 0.2641 ± 0.00021 | 0.316 ± 0.027 | 0.5081 ± 0.0023 |
| GNIHHTRFLALL | 0.458 ± 0.0074 | 0.838 ± 0.04 | 0.859 ± 0.012 | 0.7472 ± 0.0026 | 0.835 ± 0.012 | 0.485 ± 0.017 | 0.498 ± 0.013 | 0.693 ± 0.024 |
| ALLMVCFGFSLV | 0.422 ± 0.01 | 0.445 ± 0.022 | 0.5162 ± 0.0013 | 0.372 ± 0.032 | 0.527 ± 0.0098 | 0.335 ± 0.009 | 0.367 ± 0.02 | 0.508 ± 0.0078 |
| IIFCVRVVGGDL | 0.46 ± 0.04 | 0.449 ± 0.038 | 0.508 ± 0.0054 | 0.371 ± 0.029 | 0.5566 ± 0.00057 | 0.332 ± 0.0066 | 0.38 ± 0.018 | 0.5288 ± 0.0041 |
| LTFRFGVNPYVF | 0.323 ± 0.011 | 0.631 ± 0.034 | 0.748 ± 0.013 | 0.634 ± 0.019 | 0.752 ± 0.024 | 0.132 ± 0.0056 | 0.14 ± 0.023 | 0.283 ± 0.015 |
| VFYRPFFVLFFV | 0.114 ± 0.0065 | 0.246 ± 0.026 | 0.228 ± 0.004 | 0.265 ± 0.022 | 0.413 ± 0.011 | 0.113 ± 0.016 | 0.0946 ± 0.022 | 0.152 ± 0.0038 |
| VFAFVVFLHFEC | 0.31 ± 0.0057 | 0.188 ± 0.015 | 0.296 ± 0.048 | 0.237 ± 0.036 | 0.375 ± 0.013 | 0.184 ± 0.012 | 0.238 ± 0.029 | 0.375 ± 0.066 |
| PWAHIRTVQTYV | 0.437 ± 0.0069 | 0.673 ± 0.0069 | 0.716 ± 0.013 | 0.595 ± 0.011 | 0.7626 ± 0.0066 | 0.286 ± 0.0081 | 0.314 ± 0.033 | 0.461 ± 0.027 |
| CRLFFVFVFFWW | 0.253 ± 0.095 | 0.22 ± 0.04 | 0.179 ± 0.024 | 0.253 ± 0.03 | 0.322 ± 0.0059 | 0.311 ± 0.01 | 0.249 ± 0.022 | 0.274 ± 0.023 |
| LLGGRVLWAWRV | 0.376 ± 0.022 | 0.653 ± 0.045 | 0.689 ± 0.052 | 0.626 ± 0.016 | 0.737 ± 0.019 | 0.155 ± 0.026 | 0.199 ± 0.022 | 0.3907 ± 0.0025 |
| NSCHFYSRFYLA | 0.3452 ± 0.0025 | 0.651 ± 0.012 | 0.7421 ± 0.00091 | 0.657 ± 0.022 | 0.70341 ± 0.00042 | 0.243 ± 0.0054 | 0.3 ± 0.019 | 0.5196 ± 0.00096 |
| LFVMVSVSGLVV | 0.261 ± 0.017 | 0.0501 ± 0.016 | 0.0999 ± 0.071 | 0.159 ± 0.031 | 0.255 ± 0.0059 | 0.145 ± 0.0021 | 0.16 ± 0.026 | 0.235 ± 0.0073 |
| CWILLFGCVWVG | 0.263 ± 0.0084 | 0.1785 ± 0.0003 | 0.335 ± 0.049 | 0.233 ± 0.023 | 0.397 ± 0.033 | 0.221 ± 0.015 | 0.234 ± 0.0095 | 0.336 ± 0.037 |
| IVFGWGVEWGRL | 0.69 ± 0.28 | 0.757 ± 0.038 | 0.803 ± 0.027 | 0.692 ± 0.014 | 0.7973 ± 0.0035 | 0.691 ± 0.038 | 0.701 ± 0.021 | 0.783 ± 0.017 |
| GFLRTVHFLLLG | 0.354 ± 0.054 | 0.634 ± 0.1 | 0.675 ± 0.0077 | 0.575 ± 0.012 | 0.721 ± 0.037 | 0.225 ± 0.0044 | 0.251 ± 0.035 | 0.4702 ± 0.0038 |
